Holding throughout (assay): SPR
(In general: Surface plasmon resonance follows binding to a sensor surface in real time, without labels.)

Experiment [1] addresses latent TGF‐β binding protein‐4, short isoform (LTBP4S), recombinant full-length human (human).
The target of experiment [2] is T1, fibulin‐4 (FBLN4), recombinant full-length human (human, UniProt O95967 24-443).
T1 sequence (looked up): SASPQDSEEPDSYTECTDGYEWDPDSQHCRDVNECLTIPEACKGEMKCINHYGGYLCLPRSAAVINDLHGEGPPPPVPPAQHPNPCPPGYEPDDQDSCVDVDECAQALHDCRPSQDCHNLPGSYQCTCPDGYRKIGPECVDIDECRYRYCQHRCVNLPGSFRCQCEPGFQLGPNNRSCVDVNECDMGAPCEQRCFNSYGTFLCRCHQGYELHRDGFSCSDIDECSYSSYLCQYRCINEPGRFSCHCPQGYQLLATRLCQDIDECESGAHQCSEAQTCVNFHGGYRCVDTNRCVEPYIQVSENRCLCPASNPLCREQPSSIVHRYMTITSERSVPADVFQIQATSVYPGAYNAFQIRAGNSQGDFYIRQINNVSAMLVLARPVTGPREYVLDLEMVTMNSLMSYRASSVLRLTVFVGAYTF

The target of experiment [3] is latent TGF‐β binding protein‐4, long isoform (LTBP4L), recombinant full-length human (human, UniProt Q8N2S1-1 28-1624).

On to “recombinant syndecan-3 ectodomain (SDC3‐ED) (from UniProt O75056 48-387) (domain or fragment)”, for which, in experiment [1], the koff (in general, the rate constant with which the complex falls apart) turned out to be 6.3e-05 s⁻¹.

B1: recombinant syndecan-3 ectodomain (SDC3‐ED) (domain or fragment, human, UniProt O75056 48-387, looked up)
chain: QRWRSENFERPVDLEGSGDDDSFPDDELDDLYSGSGSGYFEQESGIETAMRFSPDVALAVSTTPAVLPTTNIQPVGTPFEELPSERPTLEPATSPLVVTEVPEEPSQRATTVSTTMATTAATSTGDPTVATVPATVATATPSTPAAPPFTATTAVIRTTGVRRLLPLPLTTVATARATTPEAPSPPTTAAVLDTEAPTPRLVSTATSRPRALPRPATTQEPDIPERSTLPLGTTAPGPTEVAQTPTPETFLTTIRDEPEVPVSGGPSGDFELPEEETTQPDTANEVVAVGGAAAKASSPPGTLPKGARPGPGLLDNAIDSGSSAAQLPQKSILERKEVLV
Turning to B1, the koff was 0.00082 s⁻¹ in experiment [2] and 5.5e-05 s⁻¹ in experiment [3].

B2: recombinant syndecan-2 ectodomain (SDC2‐ED) (domain or fragment, human, UniProt P34741 19-144, looked up)
chain: ESRAELTSDKDMYLDNSSIEEASGVYPIDDDDYASASGSGADEDVESPELTTSRPLPKILLTSAAPKVETTTLNIQNKIPAQTKSPEETDKEKVHLSDSERKMDPAEEDTNVYTEKHSDSLFKRTE
As to B2, in experiment [2], the koff came to 0.00041 s⁻¹.

(Values after publication PMC11960800 (The FASEB Journal, 2025).)
